± gives the standard deviation of the averaged measurements.
Tested on: ATP
Assay: switch fluorescence ratio, 500 uM ATP over buffer (Cy3 cluster intensity, sum of 5 cycles each) (fold (ratio)); higher = stronger signal-on switching upon ATP binding; sequences stand for … in TCGTCGGCAGCGTCAGATGTGTATAAGAGACAGTTTTTTTTTTTTTTTTTTTTTTTTT…TC
Conditions: aptamer strand: ATP DNA aptamer (quencher-CACCTGGGGGAGTATTGCGGAGGAAGG + anchor), 100 nM annealed; ATP concentration: 500 uM
How it was run: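 Imaging in selection buffer was followed by imaging after 15 min with 500 uM ATP at 22 °C, for Cy3-labelled switching-strand clusters annealed to 100 nM quencher-labelled ATP aptamer on a modified Illumina MiSeq flow-cell. Five of these buffer/ATP cycles ran, separated by NaOH stripping and re-annealing. The fluorescence ratio per cluster is summed target-cycle over summed buffer-cycle Cy3 intensity, averaged per switch-domain sequence; clusters outside 100-1000 RFU were removed.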
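Further: ATP exposure 15 min at 22 °C before imaging.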

**Q.** Which switch fluorescence ratio does the source give for GGGCTGCGGA here?
**A.** 0.976 ± 0.051

**Q.** Which switch fluorescence ratio does the source give for GGGCTGGACG here?
**A.** 1 ± 0.043

**Q.** For GGGCTGGATT, which switch fluorescence ratio is on record?
**A.** 1.01 ± 0.036

**Q.** With GGGCTGGGGA as the sequence, how does the switch fluorescence ratio read?
**A.** 1.01 ± 0.033

**Q.** Which switch fluorescence ratio does the source give for GGGCTGGGGG here?
**A.** 1.01 ± 0.057

**Q.** With GGGCTGGGGT as the sequence, how does the switch fluorescence ratio read?
**A.** 0.997 ± 0.038

**Q.** How did the switch fluorescence ratio turn out when GGGCTGTTTG was run?
**A.** 0.95379 ± 2.9e-05

**Q.** How did the switch fluorescence ratio turn out when GGGCTTAGTG was run?
**A.** 0.993 ± 0.0066

**Q.** For GGGCTTCCGT, which switch fluorescence ratio is on record?
**A.** 1.089 ± 0.0068

**Q.** With GGGCTTGGCG as the sequence, how does the switch fluorescence ratio read?
**A.** 1.0275 ± 0.00013

**Q.** For GGGCTTGTGT, which switch fluorescence ratio is on record?
**A.** 0.993 ± 0.032

**Q.** How did the switch fluorescence ratio turn out when GGGCTTTGGC was run?
**A.** 1 ± 0.025

**Q.** GGGCTTTGTG was tested. Which switch fluorescence ratio did it give?
**A.** 1 ± 0.01

**Q.** With GGGGAAAAGT as the sequence, how does the switch fluorescence ratio read?
**A.** 1.01 ± 0.029

**Q.** Which switch fluorescence ratio does the source give for GGGGAAAGTT here?
**A.** 0.988 ± 0.043

**Q.** GGGGAACAGT was tested. Which switch fluorescence ratio did it give?
**A.** 0.979 ± 0.043

**Q.** GGGGAAGGAA was tested. Which switch fluorescence ratio did it give?
**A.** 0.998 ± 0.027

**Q.** For GGGGAAGGAG, which switch fluorescence ratio is on record?
**A.** 0.977 ± 0.029

**Q.** With GGGGAAGGGT as the sequence, how does the switch fluorescence ratio read?
**A.** 1.08 ± 0.23

**Q.** With GGGGAAGTAT as the sequence, how does the switch fluorescence ratio read?
**A.** 0.985 ± 0.014

**Q.** GGGGAATAGT was tested. Which switch fluorescence ratio did it give?
**A.** 1.26 ± 0.32

**Q.** For GGGGAATCCT, which switch fluorescence ratio is on record?
**A.** 1.036 ± 0.0077

**Q.** For GGGGAATCGT, which switch fluorescence ratio is on record?
**A.** 0.948 ± 0.027

**Q.** For GGGGACACAG, which switch fluorescence ratio is on record?
**A.** 0.979 ± 0.015

**Q.** For GGGGACCAAC, which switch fluorescence ratio is on record?
**A.** 1.03 ± 0.021

**Q.** With GGGGACCATT as the sequence, how does the switch fluorescence ratio read?
**A.** 1.01 ± 0.035

**Q.** For GGGGACCTAG, which switch fluorescence ratio is on record?
**A.** 1.01 ± 0.015

**Q.** Which switch fluorescence ratio does the source give for GGGGACGATA here?
**A.** 1 ± 0.053

**Q.** How did the switch fluorescence ratio turn out when GGGGACGTCG was run?
**A.** 0.9972 ± 0.0087

**Q.** How did the switch fluorescence ratio turn out when GGGGACTCTT was run?
**A.** 0.977 ± 0.023

**Q.** Which switch fluorescence ratio does the source give for GGGGAGAGAA here?
**A.** 0.9855 ± 0.0071

**Q.** With GGGGAGAGAT as the sequence, how does the switch fluorescence ratio read?
**A.** 0.999 ± 0.064

**Q.** GGGGAGAGGC was tested. Which switch fluorescence ratio did it give?
**A.** 1.08 ± 0.11

**Q.** Which switch fluorescence ratio does the source give for GGGGAGAGGT here?
**A.** 1 ± 0.067

**Q.** Which switch fluorescence ratio does the source give for GGGGAGTGCT here?
**A.** 0.9872 ± 0.004

**Q.** For GGGGAGTGGG, which switch fluorescence ratio is on record?
**A.** 0.989 ± 0.051

**Q.** GGGGATAGCG was tested. Which switch fluorescence ratio did it give?
**A.** 1 ± 0.018

**Q.** How did the switch fluorescence ratio turn out when GGGGATATCG was run?
**A.** 1.03 ± 0.024

**Q.** How did the switch fluorescence ratio turn out when GGGGATGTCT was run?
**A.** 1.03 ± 0.03

**Q.** Which switch fluorescence ratio does the source give for GGGGATTCAT here?
**A.** 0.986 ± 0.012

**Q.** How did the switch fluorescence ratio turn out when GGGGATTGAT was run?
**A.** 1.02 ± 0.039

**Q.** With GGGGCAATAT as the sequence, how does the switch fluorescence ratio read?
**A.** 3.69 ± 1.9

**Q.** For GGGGCAATGT, which switch fluorescence ratio is on record?
**A.** 1.22 ± 0.05

**Q.** Which switch fluorescence ratio does the source give for GGGGCAGCAG here?
**A.** 1.02 ± 0.031

**Q.** How did the switch fluorescence ratio turn out when GGGGCAGGGA was run?
**A.** 0.98 ± 0.052

**Q.** GGGGCATGTA was tested. Which switch fluorescence ratio did it give?
**A.** 1 ± 0.019

**Q.** With GGGGCATTTG as the sequence, how does the switch fluorescence ratio read?
**A.** 0.9834 ± 0.0011

**Q.** GGGGCCACGA was tested. Which switch fluorescence ratio did it give?
**A.** 1.01 ± 0.014

**Q.** With GGGGCCACTG as the sequence, how does the switch fluorescence ratio read?
**A.** 1.02 ± 0.023

**Q.** Which switch fluorescence ratio does the source give for GGGGCCAGGG here?
**A.** 1.04 ± 0.054

**Q.** How did the switch fluorescence ratio turn out when GGGGCCCTTG was run?
**A.** 0.97602 ± 9.7e-05

**Q.** Which switch fluorescence ratio does the source give for GGGGCCGTCA here?
**A.** 0.987 ± 0.031

**Q.** With GGGGCGAACG as the sequence, how does the switch fluorescence ratio read?
**A.** 0.977 ± 0.04

**Q.** Which switch fluorescence ratio does the source give for GGGGCGAGGT here?
**A.** 0.9974 ± 0.0041

**Q.** Which switch fluorescence ratio does the source give for GGGGCGCCTC here?
**A.** 0.992 ± 0.03

**Q.** Which switch fluorescence ratio does the source give for GGGGCGGACT here?
**A.** 0.952 ± 0.04

**Q.** Which switch fluorescence ratio does the source give for GGGGCGGATG here?
**A.** 0.968 ± 0.013

**Q.** Which switch fluorescence ratio does the source give for GGGGCGGCTA here?
**A.** 0.984 ± 0.029

**Q.** For GGGGCGGGA, which switch fluorescence ratio is on record?
**A.** 1.08 ± 0.016

**Q.** Which switch fluorescence ratio does the source give for GGGGCTAGTT here?
**A.** 0.963 ± 0.02

**Q.** For GGGGCTATAT, which switch fluorescence ratio is on record?
**A.** 1.39 ± 0.62

**Q.** For GGGGCTGTGG, which switch fluorescence ratio is on record?
**A.** 0.9933 ± 0.0087

**Q.** For GGGGCTTGCA, which switch fluorescence ratio is on record?
**A.** 1.02 ± 0.019

**Q.** How did the switch fluorescence ratio turn out when GGGGCTTTTT was run?
**A.** 1 ± 0.036

**Q.** GGGGGAACTA was tested. Which switch fluorescence ratio did it give?
**A.** 0.989 ± 0.019

**Q.** Which switch fluorescence ratio does the source give for GGGGGAACTT here?
**A.** 0.977 ± 0.032

**Q.** How did the switch fluorescence ratio turn out when GGGGGAAGAC was run?
**A.** 1.04 ± 0.053

**Q.** How did the switch fluorescence ratio turn out when GGGGGAAGCT was run?
**A.** 1.03 ± 0.05

**Q.** With GGGGGAAGGT as the sequence, how does the switch fluorescence ratio read?
**A.** 0.982 ± 0.032

**Q.** Which switch fluorescence ratio does the source give for GGGGGAAGTC here?
**A.** 1.01 ± 0.034

**Q.** Which switch fluorescence ratio does the source give for GGGGGAATAA here?
**A.** 1.54 ± 0.73

**Q.** Which switch fluorescence ratio does the source give for GGGGGAATAG here?
**A.** 1.05 ± 0.046

**Q.** For GGGGGAATGG, which switch fluorescence ratio is on record?
**A.** 1.11 ± 0.17

**Q.** For GGGGGAATGT, which switch fluorescence ratio is on record?
**A.** 0.983 ± 0.026

**Q.** How did the switch fluorescence ratio turn out when GGGGGAATTG was run?
**A.** 1.02 ± 0.075

**Q.** For GGGGGAATTT, which switch fluorescence ratio is on record?
**A.** 0.993 ± 0.028

**Q.** With GGGGGACCGA as the sequence, how does the switch fluorescence ratio read?
**A.** 1.02 ± 0.023

**Q.** GGGGGACGCT was tested. Which switch fluorescence ratio did it give?
**A.** 0.972 ± 0.039

**Q.** Which switch fluorescence ratio does the source give for GGGGGACTTC here?
**A.** 1.005 ± 0.01

**Q.** GGGGGAGAGA was tested. Which switch fluorescence ratio did it give?
**A.** 1.03 ± 0.064

**Q.** Which switch fluorescence ratio does the source give for GGGGGAGGAA here?
**A.** 0.978 ± 0.026

**Q.** Which switch fluorescence ratio does the source give for GGGGGAGGCA here?
**A.** 0.966 ± 0.032

**Q.** For GGGGGAGTGA, which switch fluorescence ratio is on record?
**A.** 0.972 ± 0.029

**Q.** GGGGGAGTTC was tested. Which switch fluorescence ratio did it give?
**A.** 1.02 ± 0.014

**Q.** For GGGGGATACG, which switch fluorescence ratio is on record?
**A.** 0.997 ± 0.033

**Q.** With GGGGGATATA as the sequence, how does the switch fluorescence ratio read?
**A.** 1.01 ± 0.021

**Q.** With GGGGGATCGG as the sequence, how does the switch fluorescence ratio read?
**A.** 1.01 ± 0.022

**Q.** With GGGGGATGCG as the sequence, how does the switch fluorescence ratio read?
**A.** 1 ± 0.048

**Q.** GGGGGATGGA was tested. Which switch fluorescence ratio did it give?
**A.** 1.0016 ± 0.0002

**Q.** GGGGGATTAA was tested. Which switch fluorescence ratio did it give?
**A.** 1 ± 0.017

**Q.** With GGGGGCACAG as the sequence, how does the switch fluorescence ratio read?
**A.** 0.992 ± 0.012

**Q.** GGGGGCAGAA was tested. Which switch fluorescence ratio did it give?
**A.** 0.983 ± 0.018

**Q.** For GGGGGCATAA, which switch fluorescence ratio is on record?
**A.** 1.03 ± 0.076

**Q.** For GGGGGCATGG, which switch fluorescence ratio is on record?
**A.** 1 ± 0.02

**Q.** How did the switch fluorescence ratio turn out when GGGGGCATTG was run?
**A.** 0.9933 ± 0.0084

**Q.** Which switch fluorescence ratio does the source give for GGGGGCCAGG here?
**A.** 1.02 ± 0.073

**Q.** For GGGGGCGGCT, which switch fluorescence ratio is on record?
**A.** 1.03 ± 0.056

**Q.** For GGGGGCGGTG, which switch fluorescence ratio is on record?
**A.** 1 ± 0.038

**Q.** Which switch fluorescence ratio does the source give for GGGGGCTATA here?
**A.** 1.001 ± 0.0094

**Q.** Which switch fluorescence ratio does the source give for GGGGGCTCAG here?
**A.** 0.9659 ± 0.0052
